± gives the uncertainty stated by the source.
Experiment: abundance fitness (aPCA) (normalised: wild type 0, dead -1); higher = more abundant; growth selection in yeast, the domain comes from the species named
Conditions: Homo sapiens

Row | Substance | abundance fitness
1 | Nanos homolog 2 Y76F, P60321 | -0.14 ± 0.13
2 | Nanos homolog 2 Y113H, P60321 | 0.057 ± 0.11

— the Human Domainome abundance scans (Beltran et al. 2025)
